Data on two molecules can be found in US20200199213A1 (Eli Lilly, published 2020).

The target in one test is T1, cynomolgus LPL (cynomolgus, UniProt A0A7N9D851 28-475).
T1 sequence: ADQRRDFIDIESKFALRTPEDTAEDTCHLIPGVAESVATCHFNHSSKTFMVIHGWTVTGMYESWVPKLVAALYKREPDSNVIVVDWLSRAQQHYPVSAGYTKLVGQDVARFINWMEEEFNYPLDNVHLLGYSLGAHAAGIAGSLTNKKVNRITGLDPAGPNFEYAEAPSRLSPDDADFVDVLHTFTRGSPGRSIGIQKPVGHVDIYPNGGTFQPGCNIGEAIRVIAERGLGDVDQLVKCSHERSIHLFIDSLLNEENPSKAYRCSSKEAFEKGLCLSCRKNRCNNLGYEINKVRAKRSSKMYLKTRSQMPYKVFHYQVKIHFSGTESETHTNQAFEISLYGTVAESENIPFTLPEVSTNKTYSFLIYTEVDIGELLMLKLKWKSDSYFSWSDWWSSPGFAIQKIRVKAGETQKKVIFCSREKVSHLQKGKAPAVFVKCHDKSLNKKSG
The test can be described thus: cell-based or functional assay.

The target in the next test is T2, mouse LPL (mouse, UniProt P11152 28-474).
T2 sequence (looked up): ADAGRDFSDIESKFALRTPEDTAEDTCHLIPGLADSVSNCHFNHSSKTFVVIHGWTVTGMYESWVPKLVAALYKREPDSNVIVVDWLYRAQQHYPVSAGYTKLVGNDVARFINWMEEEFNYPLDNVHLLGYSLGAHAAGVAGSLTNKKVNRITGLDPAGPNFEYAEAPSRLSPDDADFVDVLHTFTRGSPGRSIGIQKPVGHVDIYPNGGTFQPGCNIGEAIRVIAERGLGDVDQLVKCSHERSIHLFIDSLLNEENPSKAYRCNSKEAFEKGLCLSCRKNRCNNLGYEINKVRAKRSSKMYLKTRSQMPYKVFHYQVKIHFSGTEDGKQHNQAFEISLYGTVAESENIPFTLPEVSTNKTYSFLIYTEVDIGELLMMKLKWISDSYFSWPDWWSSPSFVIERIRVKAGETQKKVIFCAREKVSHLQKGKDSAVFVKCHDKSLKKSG
The test can be described thus: cell-based or functional assay.

B1: cynomolgus ANGPTL3/8 complex (other)
chain 1: SRIDQDNSSFDSVSPEPKSRFAMLDDVKILANGLLQLGHGLKDFVHKTKGQINDIFQKLNIFDQSFYDLSLQTSEIKEEEKELRRTTYKLQVKNEEVKNMSLELNSKLESLLEEKILLQQKVKYLEEQLTNLIQNQPATPEHPEVTSLKSFVEKQDNSIKDLLQTVEEQYKQLNQQHSQIKEIENQLRMTNIQEPTEISLSSKPRAPRTTPFLQLNEIRNVKHDGIPADCTTIYNRGEHISGTYAIRPSNSQVFHVYCDVVSGSPWTLIQHRIDGSQNFNETWENYKYGFGRLDGEFWLGLEKIYSIVKQSNYVLRIELEDWKDNKHYIEYSFYLGNHETNYTLHVVKITGNVPNAIPENKDLVFSTWDHKAKGHFSCPESYSGGWWWHDECGENNLNGKYNKPRTKSKPERRRGLSWKSQNGRLYSIKSTKMLIHPTDSESFE
chain 2: APVSSPELAEHEELTLLFHGTLQLGQALNGVYKTTEGRLTKARNSLGLYGRTVELLGQEVSRGRDAAQELRASLLETQMEEDILQLKAEAIAEVLEEVAQAQKVLQDSVRQLEVQLRSAWLGPAYQEFEVLKAHADKQSHILWALTGHVQRQRREMVAQQHRLRQIQERIHKAALPA
With B1, the “IC80 concentration (inhibition of LPL activity)” value with cynomolgus LPL was found to be 0.38 nM.

B2: mouse ANGPTL3/8 complex (other)
chain 1: SRVDPDLSSFDSAPSEPKSRFAMLDDVKILANGLLQLGHGLKDFVHKTKGQINDIFQKLNIFDQSFYDLSLRTNEIKEEEKELRRTTSTLQVKNEEVKNMSVELNSKLESLLEEKTALQHKVRALEEQLTNLILSPAGAQEHPEVTSLKSFVEQQDNSIRELLQSVEEQYKQLSQQHMQIKEIEKQLRKTGIQEPSENSLSSKSRAPRTTPPLQLNETENTEQDDLPADCSAVYNRGEHTSGVYTIKPRNSQGFNVYCDTQSGSPWTLIQHRKDGSQDFNETWENYEKGFGRLDGEFWLGLEKIYAIVQQSNYILRLELQDWKDSKHYVEYSFHLGSHETNYTLHVAEIAGNIPGALPEHTDLMFSTWNHRAKGQLYCPESYSGGWWWNDICGENNLNGKYNKPRTKSRPERRRGIYWRPQSRKLYAIKSSKMMLQPTT
chain 2: VRPAPVAPLGGPEPAQYEELTLLFHGALQLGQALNGVYRATEARLTEAGHSLGLYDRALEFLGTEVRQGQDATQELRTSLSEIQVEEDALHLRAEATARSLGEVARAQQALRDTVRRLQVQLRGAWLGQAHQEFETLKARADKQSHLLWALTGHVQRQQREMAEQQQWLRQIQQRLHTAALPA
Turning to B2, in the test with mouse LPL, the “IC80 concentration (inhibition of LPL activity)” value worked out at 0.13 nM.
